Test results taken from the supplement of paper PMC10724198.

Tests used:
Saccharomyces cerevisiae [1] = assay: protein stability index of tFT-peptide fusion in wild type (PSI (0-1 scale)); higher = more stable (slower turnover); conditions: genetic background: wild type
Procedure: (§1)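 MPS profiling in S. cerevisiae of two library types built from selected 12-aa C-degron peptides (IN1, IN2, LN1, LN3, VN2, R1-R5, W1-W3, Atg1 and Rpa12 C-termini): saturation mutagenesis libraries and C-terminal +1 capping libraries (13 aa). Each peptide is fused to the C-terminus of a sfGFP-mCherry timer, after a GGGS linker. Cells are FACS-sorted into 8 mCherry/sfGFP bins and sequenced. PSI runs from 0 (unstable) to 1 (stable), measured once in wild type and in the das1Δ or doa10Δ background.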

Saccharomyces cerevisiae [2] = assay: protein stability index of tFT-peptide fusion in deletion strain of DAS1 (PSI (0-1 scale)); higher = more stable (slower turnover)
Procedure: as §1
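Throughout, for protein stability index of tFT-peptide fusion in deletion strain of DAS1: PSI is a weighted mean of each variant's read distribution over the sorted stability bins, computed only for variants having over 10 reads in total.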
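Throughout, for protein stability index of tFT-peptide fusion in wild type: PSI derived as read-weighted mean over the 8 sorting bins, only variants exceeding 10 total reads kept, mCherry placed adjacent to the peptide and sfGFP distal.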

| Sequence | protein stability index (Saccharomyces cerevisiae [1]) | protein stability index (Saccharomyces cerevisiae [2]) |
| --- | --- | --- |
| LVVYLSCVAAIN | 0.0144 | 0.0388 |
| LKIFRQKMNHQN | 0.191 | 0.669 |
| PSQAASFWRVVG | 0.161 | 0.695 |
| CTSCGYKFVTNN | 0.495 | 0.692 |
| FSMRWTWRYWVN | 0.0598 | 0.625 |
| FSMRWTFRKWVN | 0.314 | 0.634 |
| LKILRQKCNHQN | 0.295 | 0.663 |
| RLIQPLPVQFLNY | 0.433 | 0.641 |
| RLIQPLPVQFLK | 0.613 | 0.881 |
| FSMRWTFRYWVE | 0.502 | 0.473 |
| PDKRNELIKLLN | 0.115 | 0.608 |
| PSLAASFWRVVGA | 0.545 | 0.681 |
| KKHKKGQKQKINN | 0.231 | 0.659 |
| RLIQPLPVQKLN | 0.0688 | 0.809 |
| LDVYLSCVACIN | 0.134 | 0.231 |
| VRGVVGGWRLVG | 0.176 | 0.679 |
| FSMRWTFRYCVN | 0.088 | 0.492 |
| CTSCGYKVRTNN | 0.388 | 0.693 |
| PSLAASYWRVVG | 0.157 | 0.672 |
| KKHKKGQKQKQN | 0.264 | 0.583 |
| VRGPVGGWRLVG | 0.181 | 0.682 |
| LKILRRKMNHQN | 0.216 | 0.648 |
| KKHKKGQKGKIN | 0.563 | 0.584 |
| PDKRNHPIKLLN | 0.282 | 0.574 |

| Sequence | protein stability index (Saccharomyces cerevisiae [1]) | protein stability index (Saccharomyces cerevisiae [2]) |
| --- | --- | --- |
| CTSCGYLFRTNN | 0.348 | 0.698 |
| PSLCASFWRVVG | 0.129 | 0.68 |
| CTSGGYKFRTNN | 0.551 | 0.673 |
| FSMRWKFRYWVN | 0.0643 | 0.577 |
| IKILRQKMNHQN | 0.177 | 0.659 |
| LVVYLSCVACINF | 0.024 | 0.0394 |
| DKILRQKMNHQN | 0.121 | 0.672 |
| LKILRQKINHQN | 0.23 | 0.668 |
| VRGEVGGWRLVG | 0.119 | 0.606 |
| PSLLASFWRVVG | 0.145 | 0.695 |
| VRGAVSGWRLVG | 0.145 | 0.683 |
| ESMRWTFRYWVN | 0.0849 | 0.56 |
| CTSCGYKFGTNN | 0.688 | 0.693 |
| RKILRQKMNHQN | 0.162 | 0.69 |
| KKFKKGQKQKIN | 0.129 | 0.575 |
| CTSNGYKFRTNN | 0.381 | 0.674 |
| PDKRNHNIKLLN | 0.172 | 0.602 |
| PDKRNHLIKHLN | 0.0778 | 0.601 |
| VRGAVGGWRSVG | 0.342 | 0.664 |
| KKHKKGQKAKIN | 0.241 | 0.611 |
| LKILRQKMNHQN | 0.192 | 0.674 |
| FSPRWTFRYWVN | 0.075 | 0.59 |
| FSMRWTFRYWMN | 0.07 | 0.485 |
| PDKRNHMIKLLN | 0.0922 | 0.625 |

| Sequence | protein stability index (Saccharomyces cerevisiae [1]) | protein stability index (Saccharomyces cerevisiae [2]) |
| --- | --- | --- |
| PDKRNHLIKLLNK | 0.655 | 0.67 |
| VRGAVGGWELVG | 0.551 | 0.63 |
| RTSCGYKFRTNN | 0.188 | 0.685 |
| PDKRHHLIKLLN | 0.113 | 0.705 |
| KKHTKGQKQKIN | 0.129 | 0.622 |
| SLIQPLPVQFLN | 0.0779 | 0.618 |
| RLIQPLPVQFLH | 0.301 | 0.582 |
| LVVYLSCVACIE | 0.0121 | 0.0184 |
| KKHKKGQKTKIN | 0.435 | 0.619 |
| RLIQPLPVQFLNA | 0.545 | 0.612 |
| KKHMKGQKQKIN | 0.103 | 0.551 |
| PSYAASFWRVVG | 0.131 | 0.715 |
| FSMRGTFRYWVN | 0.106 | 0.608 |
| LVVYHSCVACIN | 0.181 | 0.313 |
| FSMRWTFRYWVNC | 0.114 | 0.508 |
| RLIQPNPVQFLN | 0.0748 | 0.576 |
| CTSCGYKTRTNN | 0.632 | 0.679 |
| AEWRVGLWRGAS | 0.528 | 0.689 |
| RLIQPLMVQFLN | 0.0988 | 0.598 |
| HSMRWTFRYWVN | 0.0543 | 0.586 |
| PDKRNHLIWLLN | 0.0587 | 0.705 |
| ARWRVVLWRGAS | 0.517 | 0.621 |
| RMIQPLPVQFLN | 0.045 | 0.571 |
| VPGAVGGWRLVG | 0.139 | 0.667 |

| Sequence | protein stability index (Saccharomyces cerevisiae [1]) | protein stability index (Saccharomyces cerevisiae [2]) |
| --- | --- | --- |
| PDKRNYLIKLLN | 0.119 | 0.601 |
| FSMRWTFRYMVN | 0.0804 | 0.577 |
| LKILRAKMNHQN | 0.223 | 0.665 |
| ARWRVGLWHGAS | 0.624 | 0.665 |
| PSLAASFWRVEG | 0.672 | 0.687 |
| PDKRNHLISLLN | 0.438 | 0.614 |
| PDKRIHLIKLLN | 0.0865 | 0.589 |
| LQILRQKMNHQN | 0.117 | 0.701 |
| RLIQPLPVNFLN | 0.0915 | 0.579 |
| KKHKKCQKQKIN | 0.0395 | 0.548 |
| PSLAASFWFVVG | 0.658 | 0.666 |
| RLIQPLIVQFLN | 0.0468 | 0.542 |
| KSLAASFWRVVG | 0.112 | 0.673 |
| VRGNVGGWRLVG | 0.109 | 0.667 |
| FSMRWTFRYWLN | 0.0521 | 0.486 |
| LKIHRQKMNHQN | 0.226 | 0.673 |
| LVVYLSCVACRN | 0.0192 | 0.0464 |
| FVVYLSCVACIN | 0.0218 | 0.0242 |
| PSLAAQFWRVVG | 0.14 | 0.696 |
| PSMAASFWRVVG | 0.126 | 0.699 |
| LVVYLSCVPCIN | 0.237 | 0.305 |
| CTSCGEKFRTNN | 0.523 | 0.666 |
| FSGRWTFRYWVN | 0.0867 | 0.626 |
| KKHKKGQKQKIH | 0.114 | 0.662 |

| Sequence | protein stability index (Saccharomyces cerevisiae [1]) | protein stability index (Saccharomyces cerevisiae [2]) |
| --- | --- | --- |
| PDKRNHLIYLLN | 0.0898 | 0.702 |
| CNSCGYKFRTNN | 0.193 | 0.702 |
| FSMRWTFRYWVT | 0.225 | 0.469 |
| PDKFNHLIKLLN | 0.117 | 0.622 |
| KKHKKGQKQKINR | 0.644 | 0.657 |
| LVVYLSCVACPN | 0.0732 | 0.0988 |
| VRGAVGGWRLDG | 0.648 | 0.691 |
| ARWRVELWRGAS | 0.203 | 0.665 |
| CQSCGYKFRTNN | 0.248 | 0.7 |
| LVVYLSCVMCIN | 0.0111 | 0.0156 |
| LKILFQKMNHQN | 0.267 | 0.688 |
| VRGFVGGWRLVG | 0.145 | 0.691 |
| VVVYLSCVACIN | 0.0234 | 0.0435 |
| ARWLVGLWRGAS | 0.419 | 0.706 |
| ARIRVGLWRGAS | 0.599 | 0.686 |
| PDKPNHLIKLLN | 0.199 | 0.607 |
| KKHKKGQKQKIP | 0.336 | 0.638 |
| LKILRQKMLHQN | 0.227 | 0.643 |
| LKILRQKMNRQN | 0.21 | 0.68 |
| PSLAASFWRTVG | 0.172 | 0.698 |
| FSMRHTFRYWVN | 0.0782 | 0.588 |
